Reference: US20200207859A1 (priority 2017, published 2020)

Legend:
Experiment in all cases: Cell binding assay (FACS), anti-CD74 antibody without conjugation
CD74 [1] = biological target: T1, CD74 (Homo sapiens, UniProt P04233)
T1 construct: endogenous in cells; host or cells: B-lymphoma, multiple myeloma and leukemia cell lines
T1 sequence (P04233 1-296): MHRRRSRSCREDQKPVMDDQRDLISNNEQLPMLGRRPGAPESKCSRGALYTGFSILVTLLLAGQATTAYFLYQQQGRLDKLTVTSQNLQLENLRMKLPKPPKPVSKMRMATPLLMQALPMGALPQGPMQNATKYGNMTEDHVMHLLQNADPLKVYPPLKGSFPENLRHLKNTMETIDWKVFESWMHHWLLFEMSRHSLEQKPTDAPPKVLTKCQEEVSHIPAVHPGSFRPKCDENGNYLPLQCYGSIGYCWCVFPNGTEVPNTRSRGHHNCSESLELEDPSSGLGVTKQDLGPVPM
Description: (§1) Cell lines were maintained in RPMI, high glucose (Cellgro-Mediatech; Manassas, Va.) supplemented with 20% heat-inactivated fetal bovine serum (Hyclone; Thermo Scientific; Waltham, Mass.), 2 mM glutamax (Invitrogen; Carlsbad, Calif.) and 1× Pencillin/streptomycin (Cellgro-Mediatech; Manassas, Va.). Cells were harvested and re-suspended in FACS buffer (DPBS buffer supplemented with 1% bovine serum albumin). […] Cells were washed twice with ice-cold FACS buffer and incubated with 5 ug/ml Alexa 647 labeled donkey anti-human IgG antibody (Jackson Immune-Research) on ice for another 60 mins. Unstained cells and cells stained with secondary antibody alone were used as controls. Samples were then washed twice using FACS buffer and analyzed using a BD FACS Canto system. Mean fluorescence intensities were fitted using non-linear regression analysis with one site specific binding equation on GraphPad Prism. Data was expressed as geometric mean fluorescent intensity vs. antibody concentration in nM.

CD74 [2] = biological target: T1, CD74; design: unit: geometric MFI
Description: as §1

CD74 [3] = biological target: T1, CD74; design: key: NK = no killing; NB = no binding
Description: as §1

B1: anti-CD74 (antibody, V domains shown)
VH: QVQLVESGGGVVQPGRSLRLSCAASGFNFSDYGMHWVRQAPGKGLEWVAVIWYDGSISYYADSVKGRFTISRDNSKNTLYLQMNSLRAEDTAVYYCARGGTVEHGAVYGTDVWGQGTTVTVSS
VL: DIQMTQSPSSVSASVGDRVTITCRASQGIGSWLAWYQQKPGKAPKLLIYAADRLQSGVPSRFSGSGSGTDFTLTISSLQPEDFATYYCQQYHTYPLTFGGGTKVEIK
modifications: non-natural residues
B1 was tested. Which Kd (CD74 [1]; ARD (MM) cells) did it give?
The Kd was 2.6 nM.

What about the Kd (CD74 [1]; BDCM (AML) cells) of the same molecule?
Its Kd is 4.5 nM.

And the Kd (CD74 [1]; JVM-13 (CLL) cells)?
The Kd was 2.5 nM.

What about the Kd (CD74 [1]; RPMI-6666 (HL) cells) of the same molecule?
The Kd was 2.3 nM.

And the Kd (CD74 [1]; RPMI-8226 (MM) cells)?
The Kd was 3.6 nM.

And the Kd (CD74 [1]; SU-DHL-6 (NHL) cells)?
Its Kd is 2 nM.

And the Kd (CD74 [1]; SUP-B15 (ALL) cells)?
Its Kd is 3.5 nM.

What about the “Cell Binding Bmax” value (CD74 [2]; ARD (MM) cells) of the same molecule?
Its value is 190.

And the “Cell Binding Bmax” value (CD74 [2]; ARP-1 (MM) cells)?
Its value is 341.

What about the “Cell Binding Bmax” value (CD74 [2]; BDCM (AML) cells) of the same molecule?
The value was 3059.

What about the “Cell Binding Bmax” value (CD74 [2]; JVM-13 (CLL) cells) of the same molecule?
Its value is 447.

And the “Cell Binding Bmax” value (CD74 [2]; RPMI-6666 (HL) cells)?
Its value is 3879.

What about the “Cell Binding Bmax” value (CD74 [2]; RPMI-8226 (MM) cells) of the same molecule?
The value was 119.

And the “Cell Binding Bmax” value (CD74 [2]; SU-DHL-6 (NHL) cells)?
Its value is 1565.

And the “Cell Binding Bmax” value (CD74 [2]; SUP-B15 (ALL) cells)?
Its value is 680.

What about the “Cell Binding Bmax” value (CD74 [3]; K562 (CML) cells) of the same molecule?
The value was “NB”.

What about the “Cell Binding Bmax” value (CD74 [3]; OPM-2 (MM) cells) of the same molecule?
Its value is “NB”.
